Source: US20250313631A1 (HUMMINGBIRD BIOSCIENCE PTE, published 2025)
One block for each binder: values may come before it.

Assays:
human B7H7 = biological target: T1, human B7H7 (human, UniProt Q9UM44 23-344); assay: ELISA, plate coated with the antigen
T1 construct: also called HHLA2
T1 sequence (looked up): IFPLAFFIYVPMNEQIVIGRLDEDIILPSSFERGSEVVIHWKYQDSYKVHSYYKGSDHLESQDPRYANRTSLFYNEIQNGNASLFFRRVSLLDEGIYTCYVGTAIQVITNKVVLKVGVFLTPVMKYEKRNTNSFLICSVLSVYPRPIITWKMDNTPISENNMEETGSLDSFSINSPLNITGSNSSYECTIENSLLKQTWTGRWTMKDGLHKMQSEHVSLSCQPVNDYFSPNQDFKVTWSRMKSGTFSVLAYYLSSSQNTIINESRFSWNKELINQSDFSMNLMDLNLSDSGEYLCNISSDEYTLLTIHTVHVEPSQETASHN

human PD-1 = human PD-1 (human, UniProt Q15116 25-167); assay: ELISA, plate coated with the antigen
human B7H4 = biological target: T2, human B7H4 (human, UniProt Q7Z7D3 25-258, limits assumed); assay: ELISA, plate coated with the antigen
T2 construct: also called VTCN1
T2 sequence (looked up): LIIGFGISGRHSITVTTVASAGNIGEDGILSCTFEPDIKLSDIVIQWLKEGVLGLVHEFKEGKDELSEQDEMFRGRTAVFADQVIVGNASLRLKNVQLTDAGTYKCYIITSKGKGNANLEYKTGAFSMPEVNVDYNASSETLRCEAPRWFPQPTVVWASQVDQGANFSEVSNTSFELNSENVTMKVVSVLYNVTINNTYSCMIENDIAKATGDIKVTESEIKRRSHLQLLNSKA

human B7H6 [1] = biological target: T3, human B7H6 (human, UniProt Q68D85 25-262); assay: ELISA, plate coated with the antigen
T3 construct: also called NCR3LG1
T3 sequence (looked up): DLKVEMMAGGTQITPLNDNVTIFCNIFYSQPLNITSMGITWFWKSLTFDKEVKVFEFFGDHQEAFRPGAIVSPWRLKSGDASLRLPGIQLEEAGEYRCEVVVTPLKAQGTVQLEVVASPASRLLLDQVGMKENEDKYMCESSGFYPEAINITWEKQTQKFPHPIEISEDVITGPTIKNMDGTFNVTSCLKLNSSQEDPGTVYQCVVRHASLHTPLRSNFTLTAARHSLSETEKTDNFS

[2] = biological target: T4, recombinant human VISTA (His-tagged) (human, UniProt Q9H7M9 33-194); assay: BLI (Octet QK384): His-tagged human VISTA on anti-Penta-HIS tips, V4 1000 to 31.3 nM as analyte, global fit
T4 construct: bought soluble protein (Sino Biological); also called hVISTA; human VISTA polypeptide
Procedure: All measurements were performed at 25° C. with agitation at 1000 rpm. Kinetic measurements for antigen binding were performed by loading anti-VISTA antibody at different concentrations (indicated in the Figures) for 120 s, followed by a 120 s dissociation time by transferring the biosensors into assay buffer containing wells. Sensograms were referenced for buffer effects and then fitted using the Octet QK384 user software (Pall ForteBio, USA).
Kinetic responses were subjected to a global fitting using a one site binding model to obtain values for association (kon), dissociation (koff) rate constants and the equilibrium dissociation constant (KD). Only curves that could be reliably fitted with the software (R²>0.90) were included in the analysis.

[3] = biological target: T4, recombinant human VISTA (His-tagged); assay: ELISA, plate coated with human VISTA
[4] = biological target: T4, recombinant human VISTA (His-tagged); assay: antigen-binding ELISA; HMBD-002 in F7, day 20 at 40°C
[5] = biological target: T4, recombinant human VISTA (His-tagged); assay: antigen-binding ELISA; HMBD-002 in F5, day 20 at 40°C
[6] = biological target: T4, recombinant human VISTA (His-tagged); assay: ELISA on coated human VISTA, antibody diluted in buffer of pH 6
Procedure: (§1) 384-well plates were coated with 1 μg/ml of target antigen diluted in PBS for 16 hrs at 4° C. […] After washing, plates were developed with colorimetric detection substrate 3,3′,5,5′-tetramethylbenzidine (Turbo-TMB; Pierce) for 10 min.

[7] = biological target: T4, recombinant human VISTA (His-tagged); assay: antigen-binding ELISA; HMBD-002 in F4, day 10 at 40°C
[8] = biological target: T4, recombinant human VISTA (His-tagged); assay: antigen-binding ELISA; HMBD-002 in F4, day 30 at 40°C
[9] = biological target: T4, recombinant human VISTA (His-tagged); assay: antigen-binding ELISA; HMBD-002 in F6, day 30 at 40°C
human CTLA4 = human CTLA4 (human, UniProt P16410 36-162); assay: ELISA, plate coated with human CTLA-4, antibody titrated
Procedure: as §1

[10] = biological target: T5, rat VISTA expressed on cells (rat, UniProt A0ABK0L5H3 33-310); assay: flow cytometry, HEK293T cells expressing the VISTA ortholog
T5 construct: whole, on cells; also called rat VISTA on HEK293T cells; VISTA on rat CD11b+ myeloid cells
T5 sequence: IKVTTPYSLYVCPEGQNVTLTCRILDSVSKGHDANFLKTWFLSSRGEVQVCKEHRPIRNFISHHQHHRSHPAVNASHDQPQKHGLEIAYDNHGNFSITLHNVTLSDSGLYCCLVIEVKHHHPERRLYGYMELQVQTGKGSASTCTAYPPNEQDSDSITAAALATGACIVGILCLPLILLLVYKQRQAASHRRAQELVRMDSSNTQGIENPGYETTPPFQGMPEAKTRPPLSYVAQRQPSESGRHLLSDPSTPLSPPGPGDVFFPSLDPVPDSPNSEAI
Procedure: (§2) To identify myeloid cells, PBMCs were further incubated with CD45 FITC and CD11b PE. Cells were washed again and resuspended in 200 μL of FACS flow buffer (PBS with 5 mM EDTA) for flow cytometric analysis using MACSQuant 10 (Miltenyi). After acquisition, all raw data were analyzed using Flowlogic software. Cells were gated using forward and side scatter, and the percentage of positive cells was determined.

[11] = biological target: T6, mouse VISTA expressed on cells (mouse, UniProt Q9D659 33-308); assay: as above
T6 construct: whole, on cells; also called murine VISTA on transfected cells; VISTA on mouse CD11b+ myeloid cells
T6 sequence (looked up): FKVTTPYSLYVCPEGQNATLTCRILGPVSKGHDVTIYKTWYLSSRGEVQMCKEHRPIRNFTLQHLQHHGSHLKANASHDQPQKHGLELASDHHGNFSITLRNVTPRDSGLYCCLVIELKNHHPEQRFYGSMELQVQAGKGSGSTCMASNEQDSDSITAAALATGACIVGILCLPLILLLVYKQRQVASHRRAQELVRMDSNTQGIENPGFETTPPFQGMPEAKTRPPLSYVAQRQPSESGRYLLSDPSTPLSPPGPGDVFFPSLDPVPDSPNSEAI
Procedure: as §2

[12] = biological target: T4, recombinant human VISTA (His-tagged); assay: antigen-binding ELISA; HMBD-002 in F1, day 30 at 40°C
human B7H6 [13] = biological target: T3, human B7H6; assay: ELISA, plate coated with human B7H6, antibody titrated
Procedure: as §1

Chain of human PD-1 (Q15116 25-167 limits assumed): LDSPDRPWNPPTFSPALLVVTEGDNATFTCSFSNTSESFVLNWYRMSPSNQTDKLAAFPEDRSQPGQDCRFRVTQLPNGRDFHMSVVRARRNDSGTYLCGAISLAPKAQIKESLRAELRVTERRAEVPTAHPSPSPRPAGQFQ
Chain of human CTLA4 (P16410 36-162 limits assumed): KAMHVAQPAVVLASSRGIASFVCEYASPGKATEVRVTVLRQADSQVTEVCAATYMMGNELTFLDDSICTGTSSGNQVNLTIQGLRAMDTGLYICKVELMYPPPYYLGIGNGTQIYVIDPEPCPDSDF

binding result (human B7H7): no binding (tested: log -7.5 M) | binding result (human PD-1): no binding (tested: log -7.5 M) | binding result (human B7H4): no binding (tested: log -7.5 M) | binding result (human B7H6 [1]): no binding (tested: log -7.5 M) | kon [2]: 45400 M⁻¹ s⁻¹
B1: anti-VISTA clone 4M2-C12 IgG1 (antibody)
heavy: not shown
light: DIVITQTPAILSTSPGEKVTMTCRASSSVGYIHWYQQKPGSSPKPWIYATSNLASGVPARFSGSGSGTSNSLTITRVEAEDAATYYCQQWSSYPPITFGGGTKLEVKRTVAAPSVFIFPPSDEQLKSGTASVVCLLNNFYPREAKVQWKVDNALQSGNSQESVTEQDSKDSTYSLSSTLTLSKADYEKHKVYACEVTHQGLSSPVTKSFNRGEC
notes: mouse variable regions on human IgG1/kappa constant regions; also called V4; V4pr

EC50 (read off the curve) [3]: ~0.01 nM
B2: anti-VISTA clone V4-C26 IgG1 (antibody)
heavy: not shown
light: EIVLTQSPATLSLSPGERATLSCRASSSVGYIHWYQQKPGQAPRPIIYTTSNRATGIPARFSGSGSGTDNTLTISSLEPEDSAVYYCQQWSSYPPITFGGGTKLEVKRTVAAPSVFIFPPSDEQLKSGTASVVCLLNNFYPREAKVQWKVDNALQSGNSQESVTEQDSKDSTYSLSSTLTLSKADYEKHKVYACEVTHQGLSSPVTKSFNRGEC

EC50 [4]: 0.0206 nM | EC50 [5]: 0.0239 nM | EC50 [6]: 0.0589 nM | EC50 [7]: 0.0325 nM | EC50 [8]: 0.0227 nM | EC50 [9]: 0.0218 nM | binding result (human CTLA4): no binding (tested: about 3e-8 M) | EC50 [10]: 4.13 nM | EC50 [11]: 8.94 nM | EC50 [12]: 0.0215 nM | binding result (human B7H6 [13]): no binding (tested: about 3e-8 M)
B3: V4-C26 hIgG4 (antibody)
heavy: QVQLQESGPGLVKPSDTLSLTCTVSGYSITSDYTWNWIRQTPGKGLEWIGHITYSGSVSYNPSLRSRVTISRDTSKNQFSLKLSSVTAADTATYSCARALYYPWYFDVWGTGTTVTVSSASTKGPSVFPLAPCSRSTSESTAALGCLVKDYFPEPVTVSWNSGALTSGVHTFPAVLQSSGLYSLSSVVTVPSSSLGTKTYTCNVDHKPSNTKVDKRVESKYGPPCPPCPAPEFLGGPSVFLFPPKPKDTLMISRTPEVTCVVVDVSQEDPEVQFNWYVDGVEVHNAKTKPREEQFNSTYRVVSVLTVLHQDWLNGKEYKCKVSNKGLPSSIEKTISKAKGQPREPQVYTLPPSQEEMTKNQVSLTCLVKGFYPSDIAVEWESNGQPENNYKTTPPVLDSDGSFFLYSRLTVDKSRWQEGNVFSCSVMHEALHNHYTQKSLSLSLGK
light: B2 light
notes: human IgG4 (S228P)/kappa format; also called HMBD-002; HMBD-002-V4C26
